B1: Storkhead-box protein 2, residues 64 to 141; numbered along this chain, Q9P2F5 (parent)
chain: SPISQSQFIPLGEILCLAISAMNSARKPVTQEALMEHLTTCFPGVPTPSQEILRHTLNTLVRERKIYPTPDGYFIVTP

± gives the uncertainty stated by the source.

In the data set the parent is B1. The experiment in a line: abundance fitness (aPCA) (normalised: wild type 0, dead -1); higher = more abundant; growth selection in yeast, the domain comes from the species named. Conditions: Homo sapiens.
Turning to SPISQSQFKPLGEILCLAISAMNSARKPVTQEALMEHLTTCFPGVPTPSQEILRHTLNTLVRERKIYPTPDGYFIVTP [I9K], the abundance fitness came to 0.044 ± 0.11.
In the case of SPISQSQFWPLGEILCLAISAMNSARKPVTQEALMEHLTTCFPGVPTPSQEILRHTLNTLVRERKIYPTPDGYFIVTP [I9W], the abundance fitness is -0.011 ± 0.063.
For SPISQSQFYPLGEILCLAISAMNSARKPVTQEALMEHLTTCFPGVPTPSQEILRHTLNTLVRERKIYPTPDGYFIVTP [I9Y] the value was -0.082 ± 0.1; for SPISQSQFQPLGEILCLAISAMNSARKPVTQEALMEHLTTCFPGVPTPSQEILRHTLNTLVRERKIYPTPDGYFIVTP [I9Q], 0.101 ± 0.14; for SPISQSQFNPLGEILCLAISAMNSARKPVTQEALMEHLTTCFPGVPTPSQEILRHTLNTLVRERKIYPTPDGYFIVTP [I9N], 0.131 ± 0.1.
Next, SPISQSQFEPLGEILCLAISAMNSARKPVTQEALMEHLTTCFPGVPTPSQEILRHTLNTLVRERKIYPTPDGYFIVTP [I9E]: 0.074 ± 0.1.
In the case of SPISQSQFTPLGEILCLAISAMNSARKPVTQEALMEHLTTCFPGVPTPSQEILRHTLNTLVRERKIYPTPDGYFIVTP [I9T], the abundance fitness amounted to 0.007 ± 0.06.
Next, SPISQSQFGPLGEILCLAISAMNSARKPVTQEALMEHLTTCFPGVPTPSQEILRHTLNTLVRERKIYPTPDGYFIVTP [I9G]: 0.025 ± 0.036; SPISQSQFMPLGEILCLAISAMNSARKPVTQEALMEHLTTCFPGVPTPSQEILRHTLNTLVRERKIYPTPDGYFIVTP [I9M]: 0.062 ± 0.084; SPISQSQFPPLGEILCLAISAMNSARKPVTQEALMEHLTTCFPGVPTPSQEILRHTLNTLVRERKIYPTPDGYFIVTP [I9P]: 0.046 ± 0.071.
In the case of SPISQSQFVPLGEILCLAISAMNSARKPVTQEALMEHLTTCFPGVPTPSQEILRHTLNTLVRERKIYPTPDGYFIVTP [I9V], the abundance fitness stood at 0.011 ± 0.036.
For SPISQSQFIELGEILCLAISAMNSARKPVTQEALMEHLTTCFPGVPTPSQEILRHTLNTLVRERKIYPTPDGYFIVTP [P10E] the value was -0.043 ± 0.072; for SPISQSQFICLGEILCLAISAMNSARKPVTQEALMEHLTTCFPGVPTPSQEILRHTLNTLVRERKIYPTPDGYFIVTP [P10C], -0.136 ± 0.12; for SPISQSQFIDLGEILCLAISAMNSARKPVTQEALMEHLTTCFPGVPTPSQEILRHTLNTLVRERKIYPTPDGYFIVTP [P10D], -0.135 ± 0.21.
For SPISQSQFIFLGEILCLAISAMNSARKPVTQEALMEHLTTCFPGVPTPSQEILRHTLNTLVRERKIYPTPDGYFIVTP [P10F] the value was -0.04 ± 0.093; for SPISQSQFIALGEILCLAISAMNSARKPVTQEALMEHLTTCFPGVPTPSQEILRHTLNTLVRERKIYPTPDGYFIVTP [P10A], -0.027 ± 0.051; for SPISQSQRIPLGEILCLAISAMNSARKPVTQEALMEHLTTCFPGVPTPSQEILRHTLNTLVRERKIYPTPDGYFIVTP [F8R], -0.059 ± 0.03.
For SPISQSQVIPLGEILCLAISAMNSARKPVTQEALMEHLTTCFPGVPTPSQEILRHTLNTLVRERKIYPTPDGYFIVTP [F8V] the value was -0.063 ± 0.043; for SPISQSQDIPLGEILCLAISAMNSARKPVTQEALMEHLTTCFPGVPTPSQEILRHTLNTLVRERKIYPTPDGYFIVTP [F8D], -0.027 ± 0.12; for SPISQSQKIPLGEILCLAISAMNSARKPVTQEALMEHLTTCFPGVPTPSQEILRHTLNTLVRERKIYPTPDGYFIVTP [F8K], -0.137 ± 0.11.
Regarding SPISQSQWIPLGEILCLAISAMNSARKPVTQEALMEHLTTCFPGVPTPSQEILRHTLNTLVRERKIYPTPDGYFIVTP [F8W], the abundance fitness was -0.016 ± 0.058.
Next, SPISQSQHIPLGEILCLAISAMNSARKPVTQEALMEHLTTCFPGVPTPSQEILRHTLNTLVRERKIYPTPDGYFIVTP [F8H]: 0.015 ± 0.13; SPISQSQYIPLGEILCLAISAMNSARKPVTQEALMEHLTTCFPGVPTPSQEILRHTLNTLVRERKIYPTPDGYFIVTP [F8Y]: -0.326 ± 0.14.
For SPISQSQIIPLGEILCLAISAMNSARKPVTQEALMEHLTTCFPGVPTPSQEILRHTLNTLVRERKIYPTPDGYFIVTP [F8I] the value was -0.017 ± 0.075; for SPISQSQQIPLGEILCLAISAMNSARKPVTQEALMEHLTTCFPGVPTPSQEILRHTLNTLVRERKIYPTPDGYFIVTP [F8Q], -0.196 ± 0.075; for SPISQSQGIPLGEILCLAISAMNSARKPVTQEALMEHLTTCFPGVPTPSQEILRHTLNTLVRERKIYPTPDGYFIVTP [F8G], -0.103 ± 0.052.
For SPISQSQMIPLGEILCLAISAMNSARKPVTQEALMEHLTTCFPGVPTPSQEILRHTLNTLVRERKIYPTPDGYFIVTP [F8M] the value was -0.102 ± 0.079; for SPISQSQTIPLGEILCLAISAMNSARKPVTQEALMEHLTTCFPGVPTPSQEILRHTLNTLVRERKIYPTPDGYFIVTP [F8T], -0.08 ± 0.096; for SPISQSQNIPLGEILCLAISAMNSARKPVTQEALMEHLTTCFPGVPTPSQEILRHTLNTLVRERKIYPTPDGYFIVTP [F8N], -0.021 ± 0.16.
Turning to SPISQSQPIPLGEILCLAISAMNSARKPVTQEALMEHLTTCFPGVPTPSQEILRHTLNTLVRERKIYPTPDGYFIVTP [F8P], the abundance fitness was -0.081 ± 0.08.
For the variant SPISQSQCIPLGEILCLAISAMNSARKPVTQEALMEHLTTCFPGVPTPSQEILRHTLNTLVRERKIYPTPDGYFIVTP [F8C], the abundance fitness is -0.104 ± 0.071.
Next, SPISQSQSIPLGEILCLAISAMNSARKPVTQEALMEHLTTCFPGVPTPSQEILRHTLNTLVRERKIYPTPDGYFIVTP [F8S]: 0.017 ± 0.058; SPISQSQAIPLGEILCLAISAMNSARKPVTQEALMEHLTTCFPGVPTPSQEILRHTLNTLVRERKIYPTPDGYFIVTP [F8A]: -0.055 ± 0.07; SPISQSQEIPLGEILCLAISAMNSARKPVTQEALMEHLTTCFPGVPTPSQEILRHTLNTLVRERKIYPTPDGYFIVTP [F8E]: -0.012 ± 0.082.
For SPISQSQLIPLGEILCLAISAMNSARKPVTQEALMEHLTTCFPGVPTPSQEILRHTLNTLVRERKIYPTPDGYFIVTP [F8L] the value was -0.135 ± 0.054.

Values taken from the Human Domainome abundance scans (Beltran et al. 2025).
